The values below come from patent publication US20250154215A1, “PHARMACEUTICAL COMPOSITION FOR TREATING COLITIS OR COLORECTAL CANCER COMPRISING COLON-TARGETED S100A8/A9-DERIVED SPECIFIC PEPTIDE” (Industry-University Cooperation Foundation Hanyang …, priority 2023, published 2025).

Entries after “also recorded” stand apart in the source; their conditions may differ.

One data set concerns OxaR HCT116 xenograft. Put plainly: Parental or OxaR HCT116 xenograft tumor growth inhibition. The data set is classed as in vivo, mice. As for the experimental part:
For tumor xenograft experiments, 4- to 6-week-old female athymic nude mice (Central Lab Animal Inc., Seoul, Korea) were used. 1×10^6 HCT116 cells suspended in 0.1 mL of a cell culture medium were injected subcutaneously into the animals' right axillary region and observed for 7 to 10 days while the tumor volume was measured. Treatment was initiated when the tumor size reached an average volume of 200 or 600 mm^3. The tumor volume was measured with a skin caliper every three days, calculated as (tumor length)×(tumor width)^2×0.5, and expressed in mm^3. All animals were maintained in a specific pathogen-free environment. All animal-related procedures were examined and approved by the Hanyang University Institutional Animal Care and Use Committee (protocol numbers: 2022-0145 and 2022-0266).
Next, tumor growth inhibition assays were performed under various tumor growth conditions, and rCT-S100A8/A9 treatment was started according to the size of the established tumors. For initial tumor growth, rCT-S100A8/A9 treatment was started 10 days after tumor establishment, and for actively growing tumors, rCT-S100A8/A9 treatment was started 21 days after tumor establishment.

The subject of another data set is BMDMs. Type of data set: cell-based, mouse. As for the experimental part: FIGS. 5A and 5B show the drug-like properties of rCT-S100A8/A9. […] Bacteria-purified 6×His-rCT-S100A8/9, rVehicle or rCT was analyzed by Coomassie staining or IB using αHis (bottom, left). BMDMs were incubated with rVehicle, rCT, or rCT-S100A8/9 for the indicated times and at the indicated concentrations, and then cell viability was measured by MTT assay (bottom, right). […] HLM, human liver microsomes; CYP, cytochrome […], arrival time; AUClast, total area under the plasma concentration-time curve from time 0 to the time of the last measurement; Cmax, maximum plasma concentration;

The nature of data set [1]: AOM/DSS-induced colitis-associated colorectal cancer (CAC) mouse model. The data set is classed as in vivo, mice. The text has this:
Weight of mice compared to baseline during AOM/DSS administration. In this experiment, weight loss is a surrogate indicator of colitis severity. Data is representative of two independent experiments with similar results. […] Note the higher tumor burden in the distal colon/rectum and the characteristic wrinkled texture of the proximal colon with little tumor growth. […] Most tumors are located in the distal colon, and their sizes are less than 2 mm. Data is shown as the mean±SD of six experiments. […] H&E and β-catenin stained slides show dysplastic changes similar to human colonic adenocarcinoma;
(§1) DSS-induced acute or chronic colitis and AOM/DSS CRC mouse models were prepared using 6-week-old C57BL/6 female mice (Samtako Bio, Osan, Korea). To assess the induction of acute colitis, mice were exposed ad libitum to 3% (w/v) dextran sodium sulfate (molecular weight: 36-50 kDa, MP Biomedicals, Santa Ana, CA, USA) dissolved in drinking water. The mouse models are illustrated in FIGS. 7A, 5E, and 6A. DSS solutions were prepared every two days. […] The humane endpoint for weight loss (requiring euthanasia) was 20% (compared to the original body weight of an animal). Without an approved exception request, body weight loss could not exceed 20%.
AOM/DSS-treated mice were administered rCT-S100A8/A9 four times according to the administration frequency during three DSS cycles until week 10 (FIG. 9A, top). […] Tumor induction by AOM/DSS treatment was mainly observed in the distal colon and produced colonic shortening in the CAC mouse model.

A short description of data set [2]: The results of in vitro plasma stability, microsomal stability, CYP inhibition and PK profile of S100A8/A9 peptides and rCT-S100A8/A9 proteins. As for the experimental part: Table printed on a drawing sheet, Fig. 5B
Title: The results of in vitro plasma stability, microsomal stability, CYP inhibition and PK profile of S100A8/A9 peptides and rCT-S100A8/A9 proteins
The patent's description of the figure: FIGS. 5A and 5B show the drug-like properties of rCT-S100A8/A9. […] Bacteria-purified 6×His-rCT-S100A8/9, rVehicle or rCT was analyzed by Coomassie staining or IB using αHis (bottom, left). BMDMs were incubated with rVehicle, rCT, or rCT-S100A8/9 for the indicated times and at the indicated concentrations, and then cell viability was measured by MTT assay (bottom, right). […] HLM, human liver microsomes; CYP, cytochrome P450. aTmax, arrival time; AUClast, total area under the plasma concentration-time curve from time 0 to the time of the last measurement; Cmax, maximum plasma concentration;
First reader's note: One record is the S100A8/A9 peptide and the other the recombinant rCT-S100A8/A9 protein; the CYP columns give remaining CYP isoform activity (CYP inhibition).

Data set [3] in a line: DSS-induced acute colitis mouse model. The data set is classed as in vivo, mice. The settings on record: treatment for three consecutive days.
On the set-up of data set [4]: species or system mice. The settings on record: mouse, in vivo, ip, 1 mg/kg. As for the experimental part: Female C57BL/6 mice with body weight of 16 to 18 g were used for PK studies. S100A8/A9 peptide or rCT-S100A8/A9 protein (1 mg/kg) was administered to the mice by intraperitoneal injection. Whole blood samples ([…]) were collected serially from the orbital vein at 0.17, 0.5, 1, 2, 4, and 6 hours after drug administration. Blood samples were centrifuged at 12,000 rpm for five minutes at 4° C., and plasma was collected. To a 10 μL plasma sample, 20 μL of 0.1% formic acid in acetonitrile was added along with amlodipine, which was an internal standard (IS), at a concentration of 500 ng/mL, and the resulting mixture was vortexed. Samples were then centrifuged at 13,200 rpm for five minutes, and 10 μL aliquots were injected for LC-MS/MS analysis.

The nature of data set [5]: DSS-induced chronic colitis mouse model. Type of data set: in vivo, mice. As for the experimental part:
as §1
The clinical score of colitis was obtained by measuring body weight, fecal occult blood or total blood loss, and stool consistency every other day during the induction of colitis. The clinical score were assessed by two trained investigators who were randomly selected. For immunohistochemical analysis of tissue sections, mouse distal colon tissues were fixed in 10% formalin and embedded in paraffin. Paraffin sections ([…]) were cut and stained with H&E. Histopathological scoring was performed by a certified pathologist (Min-Kyung Kim, Department of Pathology, Kim Min-Kyung Pathology Clinic, Seoul, Korea) who scored each organ section independently without prior knowledge of the treatment group.
Next, the therapeutic effect of rCT-S100A8/A9 on chronic colitis was confirmed. Chronic DSS colitis was induced by three cycles of DSS+water combination, and intraperitoneal rCT-S100A8/A9 injection was performed once a day for three consecutive days of DSS administration in each cycle.

Where [6] appears, read: immunostaining, vs control group.

B1: TWYKIAFQRNRKTWYKIAFQRNRKTWYKIAFQRNRKTWYKIAFQRNRKTWYKIAFQRNRKGGFLVIKGGAHKSHKGGITIITFGGGHHGGFLVIKGGAHKSHKGGITIITFGGGHHGGFLVIKGGAHKSHKGGITIITFGGGHHGG (protein)
chain: TWYKIAFQRNRKTWYKIAFQRNRKTWYKIAFQRNRKTWYKIAFQRNRKTWYKIAFQRNRKGGFLVIKGGAHKSHKGGITIITFGGGHHGGFLVIKGGAHKSHKGGITIITFGGGHHGGFLVIKGGAHKSHKGGITIITFGGGHHGG
modifications: N-terminal 6xHis tag
As to B1, the “epithelial-to-mesenchymal transition in tumors (profiler PCR array)” value in the data set with OxaR HCT116 xenograft (HCT116 xenografts) is “regulates the involvement of epithelial-to-mesenchymal transition”. Moreover, the “interaction of S100 and PRRs in xenograft tumors” value in the data set with OxaR HCT116 xenograft (Western blot) is on record as “significantly reduced”. In addition, in the data set on OxaR HCT116 xenograft (setting [6]), the “expression of E-cadherin in tumor sections” value is given as “increased”; the “expression of N-cadherin and β-catenin in tumor sections” value is reported as “decreased”. Besides, the tumor growth result in the data set with OxaR HCT116 xenograft (initially growing and actively growing tumors) is “significantly inhibited tumor growth”. Further, the cell viability result in the data set on BMDMs was “no significant effect on cell viability”. Further, in data set [1] (AOM/DSS), the colonic length result is given as “restored”, the “histological colonic damage (H&E)” value is given as “significant alleviation; also recorded: significantly alleviated”, the “tumor burden in the distal colon” value was “decreased” and the “β-catenin protein levels in colon (immunohistochemistry)” value was “effectively suppressed”. Further, the body weight gain entry in data set [1] (AOM/DSS, three DSS cycles until week 10) is listed as “higher weight gain rate according to the treatment frequency; also recorded: increased”. The “epithelial-to-mesenchymal transition (profiler PCR array)” value in data set [1] (CRC colon tissues) was “regulated”. The “number of tumors less than 2 mm” value in data set [1] (treatment for three consecutive days) was “significantly reduced”. Also, the “Stability (% remaining after 30 min) | HLM” value in data set [2] is recorded as 92.1 % remaining after 30 min. In addition, the “survival rate by treatment frequency” value in data set [3] is listed as “highest survival rate”. The “AUC values and half-life” value in data set [4] was “well maintained in the blood at effective drug concentrations”. Also, in data set [5] (2.5% DSS chronic colitis), the “colon damage (H&E staining)” value is on record as “decreased; also recorded: alleviated” and the colon length result is on record as “recovered”. In addition, the survival rates result in data set [5] (DSS-induced chronic colitis) was “significantly increased”. Besides, in data set [5] (i.p. once a day for three consecutive days per DSS cycle), the body weight loss result is given as “significantly reduced body weight loss”. Moreover, in data set [5] (macrophages and colonic lysates, real-time PCR), the “macrophage polarization (M1/M2 markers)” value was “not affected”.
